# Laboratory results reported in the DeepSol protein solubility set.
# Experiment: soluble on expression in E. coli; label from the status in PepcDB or PDB records
row,Sequence,soluble on expression in E. coli
1,MAHHHHHHMTLKEAIDRDGVPATSSSKQRRLMDIHVTAYPGLVNQHMLPKHNTAVNDFSSIDPLQYRKAHTVRNNNAASYSEKEENVLDMLTTNQCTNRMTRLGMQLREERAKNPKGMPSISSLAPRGYRSRFLSPSFDERSTYRWDYCQWEPDGFHDTVRRELLAAYRDDWTEDEKADVDISMKIPYLTMAVSSDRLKDKATIYRKDFMEDATQADYRSLSYKTNLEDLGTSYAYSAYSIDDPRRKVLFDASVAALKTPHSVLEKTYSPRNSFLEKSLSTKQQSSAREELDRLRTMRREALHLSAAKRSAAESTDDGTTTKTVVIPGIKGSGYRRVPKGNDSYVCLSRDHFCYQQVDNF,not soluble
2,MSLKNTFVYQAEKPVIKLLQITDPHLFKDESAELLGVNTQASFAQVLKEIQQENNEFDVILATGDLVQDSSDEGYIRFVEMMKPFNKPVFWIPGNHDFQPKMAEFLNQPPMNAAKHLLLGEHWQALLLDSQVYGVPHGQLSQHQLDLLKETLGKNPERYTLVVLHHHLLPTNSAWLDQHNLRNSHELAEVLAPFTNVKAILYGHIHQEVNSEWNGYQVMATPATCIQFKPDCQYFSLDTLQPGWREIELHSDGSIRTEVKRIQQAEFFPNMQEEGYEGGSHHHHHH,soluble
3,GSSGSSGAAFAKILDPAYQVDKGGRVRFVVELADPKLEVKWYKNGQEIRPSTKYIFEHKGCQRILFINNCQMTDDSEYYVTAGDEKCSTELFVRSGPSSG,soluble
4,MHHHHHHSSGVDLGTENLYFQSNAMMKAYQREFIEFALEKQVLKFGEFTLKSGRKSPYFFNAGLFNTGRDLARLGRFYAAALVDSGIEFDVLFGPAYKGIPIATTTAVALADHHDVDTPYCFNRKEAKNHGEGGNLVGSKLEGRVMLVDDVITAGTAIRESMELIQANKADLAGVLVAIDRQEKGKGELSAIQEVERDFGCAVISIVSLTDLITYLEQQGNNTEHLEAVKAYRAQYGI,soluble
5,MTKKKAHKPGSATIALNKRARHEYFIEEEFEAGLALQGWEVKSLRAGKANISDSYVLLRDGEAFLFGANITPMAVASTHVVCDPTRTRKLLLNQRELDSLYGRVNREGYTVVALSLYWKNAWCKVKIGVAKGKKQHDKRSDIKEREWQVDKARIMKNAHR,soluble
6,MGSDKIHHHHHHMTIDNQTGLVLEGGGMRGVFTCGVLDYLMDHDIRFPYTIGVSAGACNGLSYMSRQRGRAKYSNIDLLEKYHYIGLKHLLKKRNILDFDLLFTEFPEHILPYDYQAYFDSPERYVMVTTNCLTGEADYFEEKKDKNRVIDIVRASSSLPFVCPIAYVDGIPMLDGGIVDSIPLQRAIHDGYRNNVVVLTRNRGYRKENKDIRIPPFVYRKYPKMREALSRRCAAYNAQLEMVERMEEEGDILVIRPQKPVVVDRIERDIQKLTDLYEEGYECAKRQFEVL,not soluble
7,MGSDKIHHHHHHMVIDSIRSSSTGPRDAPGKRLAVGISLFARDGQAIWENGIHQNIAFLAMMLKQSDRIGPVYFLNGGDAKALPAGLDLGGLDVPLVQPRDVSHALDVVIEMGAQLPVDWLKHMKALGKKLVVCFVGHTYSGLTETPMFNRPSGHIFNGGPFDEVWILPKSEKIDAPLLRTLTRAPVHVVPHIWSPYFIERRARELEAAGLRFGYAPGRAKWRLSILEPNISVVKTCHYPMLAADEFHRAQPDAVEHLFVVNSLHMKEHPTFVHFANSLDLVREHKATFEPRIDLPSFLAQHGDAVISHQWENPQNYLYYDVLYGGYPLVHNSPMLGDAGYYYPEFDSAAGGRALQHAWRHHDAHLDDYRRHADALLQAVSIDNRRNLDAYVARLFA,not soluble
8,DLFFGWGRKKSGLKAMNLAKKYKAKFILLEDGFIRSLNLGVENSPSFSMVKDDIGIYYDATMPSKLENLLNTCEFKDEEIKQAKKAIELIKKYKISKYNNNLDIPDNYFQKDEKRVLIITQTANDASLEFGLAKDFKTLDMIKDAIKENPKSTIYIKIHPDVLSGKKQSDLDLNSLPKECILITENFNPIALLEFFDKVYTKTSGMGFEALMQECECICYGMPFYAGWGLTKDKLECKRRMQKRSLEEVFYAAYILYAEY,not soluble
9,MGSDKIHHHHHHMQRLMNNIMKVENFLAQKSINYDKIDRFLMFRMYEKYKKYFKNIPIIQLIGTNGKGSTGRYLTQLLENLNYKIGHYTSPHIFSFNERFYLDGKIANDEELEQAHIRLEEIFKQDLQKLSYFEYATFLAMILFQKCDFIVLEAGVGGEYDATSIFERRMSIFTRIGFDHIQILGNSLEDIARTKLKVMAPIALISDEQEQNVLNLAKKIAFLKKANLQVSSLNPFLKEKFEIYCKKFVLPYFLKHNLKLALKACEILTSQEKTLEALKKLQELNLQGRCQEISPNFFVDVGHNPMAAKAMLDKFQGEKINLIYNAYLDKDIFQILNTLKPIIDTIQIYKYKSAERKLADDEIYSIASKLGMQCKEFVKLEENKKNLVFGSFMLVENFLKEWCGKK,not soluble
10,MAHHHHHHMVATITFKLRSSNHVGIIEVPHRVISCREIKEAIAEKLSGSPDEIDIFVSGSSDYLHPNDELPAYTVVEVVRHVGTGRPPPKREREPVGPSNLSSAMSHAAVRAGNKNGDTATPLTEEERLAQLSEAVAVETGIDEVGAWRMRQMRNRSAAMGGGGREVTFRPPPPGYICHNCGKRGHLIQHCPAAKGVRGVKLLSLPTGIPETMLVECTMDDPAAKFVTRDGRLVKRKLDNASFVGIVTTSNADGVKPDFPSEGGNNRNDSPNSEKLETPDAGGDAAAKPQFLCAWDSVIVKNAMKAPCCGALFCETCLNERVEEAISRADASEIPLLCPGCEEPLDVPDVVEATEERKLVEALRSGKRARD,not soluble
11,MAHHHHHHMSGKLEDIGELVLLIGDFHSPMRNLGLPDCFKDLLKTDKIKHVLCTGNVGCRENLELLKNIADSVHITKGDMDDEYDFPEDISLTIGDFKMSLIHGHQIIPWGDTNALLQWQKKHDSDIVISGHTHKNSIVRYEGKYFINPGSATGAFQPWLSQPTPSFILMAVAKSSIVVYVYEEKNGKTNVEMSELQK,not soluble
12,MRFSILGLAFASVLSGCVSTTPTTSALSSTDVTTFYDYQLHSPSGNALALQNLPDELKNADVILVGEWHTHAGIHRFQTDLLRQLSSGERRIALSMEQVTRDKQSVLDAYLKGEIGEQYFMSQSNAWPNYESDYRPLVEFAKQANLPVIAANTPKYIVRCIGRQGVDYLNKLDDEERSFVAENVNTANSPYKEKFMASMHHGKPEQTEKQYAAQVTWDETMAESIVKYLAQNPNAQVVHVAGKFHTEAGLGTAASILQRNPELKVVVVNPTSEISTNSPDYQLEVLEPPVRFVQDANRMAAYKHLSTRNDDLQCKLEHHHHHH,soluble
13,MGSDKIHHHHHHKSISNKLVVFDDKEQVIQYSSNSIPVKIELYSKRWGKTSITYNNSLKEFWDIVESMPRSKNFYGSTKIENSPNDIIGTIFYLNGKRSTMCLNHNLKIDDSYYGGERGYAYINRLRNYINDIMCTPSMLASIVNDKNKVIIEDKLSEASKCGSNDKTLIKNEITKLRRISNNEKLQKTITSKGKLNYHIKIYMENSNGSNINLSKIKQDNYDIISISVYENNCAVIRDYGNDTVDTFCMEGNLTNVCKSILKR,not soluble
14,MGSDKIHHHHHHMKMETGKLLMELSNLDGPSGYETNVVSYIKSVIEPFVDEAKTTRHGSLIGYKKGKGIGKLAFFAHVDEIGFVVSKVEGQFARLEPVGGVDPKVVYASKVRIYTKNGIERGVIGMLAPHLQDSESRKKVLTYDEIFVDLSLCERDVRVGDIAVIDQTAFETNGKVVGKALDNRASCGVLVKVLEFLKRYDHPWDVYVVFSVQEETGCLGALTGAYEINPDAAIVMDVTFASEPPFSDHIELGKGPVIGLGPVVDRNLVQKIIEIAKKHNVSLQEEAVGGRSGTETDFVQLVRNGVRTSLISIPLKYMHTPVEMVDPRDVEELARLLSLVAVELEV,not soluble
15,MGSDKIHHHHHHHPHSFVDLKNKVLVDGTQLKGFQMEWTMDEIASAELIYEVKNNPDHQAAKKSITAEMEQTAIENHYFSYLYNAKDQPLKFSVKPSNTTFRIAGNRVVFYITFYLSKPYDLKNNAIRFYTYEPSYYMAMEYNNQQDLSINSSECKAKLTQPNVNNSLRLYASSLDKNQKPNMPDGEDNSLGAQFAQTVEVVCE,not soluble
16,GPGSMDVVATPLWSSPPCGSPMAGTVSSGNPLFHVGRSYYRSAAKAYNMTRYVVESLKLDETVLATSMAYWHTFVDRLELRKFDEIVLSASCVFLASKVEHYKVRLNRVIALVFEISGEGDEMEGWRRMLLEMELLVCHTLGFNFQIIHPMKRIVELVPEDHTQVLECAHRLFLLSFMTPLCVRVPADEVAEALVYLAADGAGQLEPYAGKFRCDAVERREGIINVMIDALAVMRKNTSLPKVDDMIVARRKRMREQESFRPSVAHSSGGTGSLDVTPSAFLVE,soluble
17,MGSDKIHHHHHHRSPQGQFTEDDNPNALVNGKIYNVYTMMRSFDITAGTPAIAIHYLRSEDSEKGSIPSDGSDVAEMYDDFLYTPTNGLLGSYWGKNYAIIYQCNDILDAIAEKETAGQTETEDIINKGEASFFRAYCYFNLVRAFGEVPLVTYKINDASEANIPKTTADKIYEQIDTDLKTAEESLPETWSTEYTGRLTWGAARSLHARTYMMRSDWDNMYKASTDVINKGLYNLKTPYNEIFTDDGENSGGSIFELQCTATAALPQSDVIGSQFCEVQGVRGAGQWDLGWGWHMATQLMADAYETGDPRKNATLLYFRKTDDEPITPENTNEPYGESPISPAMGAYFNKKAYTDPALRKEYTNKGFWVNIRLIRYSDVVLMAAEAANEKNIPGEAVDYLEMVRARARGTNTNILPKITTNDQGELREAIRHERRVELGLEPDRFYDLVRWGIASEVLHAAGKVNYQDKNALLPLPQSEIDKSKGVLVQNPDY,not soluble
18,MVQALPSNIGIQQVTLKVADLDKMVNFYTKTIGLKLLKQGEGRAWLAPQGTNDAILVLKELTAGEENQGTTGLYHIAFLLPTRKDLGNMLLWLLQENVQIGAADHGYSEALYLSDPENNGIEIYWDKPEEVWDIRPNGEIIGVTEELDGDSLAAEADGHWLGISEGSKIGHIHLKVADLDATETFYKNLGFGLKSNFGQQAKFFAAGQYHHHIGTNTWSGKQLPTIQENQFGLENYTFRLPTAADLEIVQANAEEAKLHFIAKDHLLALEDPSGMIIQFTY,not soluble
19,MANSSVELRVSEAYPRDVGRKIVRIDRQTAARLGVEVGDFVKVSKGDRSVVAVVWPLRPDDEGRGIIRMDGYLRAALGVTVGDTVTVEKAEKVEPASKVVLAPTEPIRFGRDFVEYVKEFLLRKPISRGETIIVPVLEGLPLVVVSTQPAHFVYVTEATEVEIREKPVREEIERLRGVPKVTWEDIGDLEEAKERIREIVELPMKHPEIFKHLGIEPPKGILLYGPPGTGKTLLAKALANEIGAYFISINGPEIMSKYYGESEQRLREIFKEAEENAPSIIFIDEIDAIAPKREEVTGEVEKRVVAQLLTLMDGLKERGRVIVIGATNRPDAIDPALRRPGRFDREIEIRPPDKRARAEILKVHTRNMPLAEDVDLDKLAEMTHGYTGADLAALAKEAAMAALRRFIREGKINFEAKEIPATVLKELKVTMKDFMEAMKMIRPTLIREIYVEVPEVRWSDIGGLEEAKQALREAVEWPLKHPEIFEKMGIRPPRGVLLFGPPGTGKTLLAKAVATESGANFIAVRGPEILSKWVGESERAIRKIFERARQAAPAVVFFDEIDAIAPARGARFDTSGVTDRIVNQMLAEMDGIQPLSNVVVIGATNRPDILDPALLRPGRFDRLIYVPPPDKEARKEIFKIHTKKVPLGEDVDLEKLAEMTEGYTGADIEAVVREAVMAKLREKLEVGKVEMRHFLEALKKVPPSLTKEDILRYERLAKELKKLTLG,soluble
